In patent publication US20250312444A1 one finds EC50 (nM), cAMP production in CHO-K1 cells with receptor overexpression, EC50 (nM), cAMP production in THP1 cells, 1% HSA and EC50 (nM), cAMP production in THP1 cells, without HSA data, which are given here for one molecule.

Test in all cases: cell-based or functional assay
The target in experiment [1] is human RXFP2 receptor (human) (UniProt Q8WXD0).
In a further experiment the target is T1, rat RXFP1 receptor (rat) (UniProt Q6R6I6).
T1 sequence (looked up): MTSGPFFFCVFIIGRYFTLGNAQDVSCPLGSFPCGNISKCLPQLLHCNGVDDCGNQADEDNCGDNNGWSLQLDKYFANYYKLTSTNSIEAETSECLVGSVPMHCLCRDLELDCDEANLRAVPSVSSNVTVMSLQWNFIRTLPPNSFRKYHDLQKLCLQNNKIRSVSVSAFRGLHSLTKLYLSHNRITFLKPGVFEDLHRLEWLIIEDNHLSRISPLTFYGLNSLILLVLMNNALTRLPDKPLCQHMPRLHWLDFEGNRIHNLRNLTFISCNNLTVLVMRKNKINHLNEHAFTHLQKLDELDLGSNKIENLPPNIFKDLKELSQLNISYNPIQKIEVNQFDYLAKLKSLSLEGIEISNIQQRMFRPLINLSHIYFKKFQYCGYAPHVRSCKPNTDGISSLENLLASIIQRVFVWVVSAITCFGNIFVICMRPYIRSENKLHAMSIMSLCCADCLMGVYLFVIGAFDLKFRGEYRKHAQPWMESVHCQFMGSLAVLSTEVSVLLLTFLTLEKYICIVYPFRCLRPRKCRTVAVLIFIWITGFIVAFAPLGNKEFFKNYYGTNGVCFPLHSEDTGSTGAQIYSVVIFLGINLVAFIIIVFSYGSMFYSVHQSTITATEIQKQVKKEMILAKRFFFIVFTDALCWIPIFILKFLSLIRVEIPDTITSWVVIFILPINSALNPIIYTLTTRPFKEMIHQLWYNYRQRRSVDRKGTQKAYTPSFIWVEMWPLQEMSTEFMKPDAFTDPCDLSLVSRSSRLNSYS

Experiment [2] has as its target T2, human RXFP1 receptor (human) (UniProt Q9HBX9).
T2 sequence (looked up): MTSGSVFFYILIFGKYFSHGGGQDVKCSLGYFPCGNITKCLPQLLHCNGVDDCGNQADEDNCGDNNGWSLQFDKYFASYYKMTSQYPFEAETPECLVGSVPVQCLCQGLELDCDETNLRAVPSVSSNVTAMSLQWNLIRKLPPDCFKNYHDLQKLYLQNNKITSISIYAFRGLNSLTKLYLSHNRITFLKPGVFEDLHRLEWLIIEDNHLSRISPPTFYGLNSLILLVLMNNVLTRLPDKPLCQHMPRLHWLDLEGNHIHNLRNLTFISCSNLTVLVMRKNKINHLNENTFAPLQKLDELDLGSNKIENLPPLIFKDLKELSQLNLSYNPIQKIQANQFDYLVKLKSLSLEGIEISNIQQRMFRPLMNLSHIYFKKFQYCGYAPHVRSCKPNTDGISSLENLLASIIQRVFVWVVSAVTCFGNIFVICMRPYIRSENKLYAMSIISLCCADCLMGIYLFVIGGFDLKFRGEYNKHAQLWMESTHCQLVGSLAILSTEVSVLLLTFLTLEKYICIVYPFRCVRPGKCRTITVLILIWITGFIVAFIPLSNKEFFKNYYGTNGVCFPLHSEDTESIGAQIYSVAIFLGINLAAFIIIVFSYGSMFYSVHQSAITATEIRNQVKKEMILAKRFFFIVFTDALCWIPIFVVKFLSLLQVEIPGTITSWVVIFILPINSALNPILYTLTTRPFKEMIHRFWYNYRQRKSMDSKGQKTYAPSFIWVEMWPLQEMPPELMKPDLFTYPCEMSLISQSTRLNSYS

For the next experiment, the target named is dog RXFP1 receptor (dog).
Experiment [3] deals with T3, cynomolgus monkey RXFP1 receptor (cynomolgus monkey).
T3 sequence: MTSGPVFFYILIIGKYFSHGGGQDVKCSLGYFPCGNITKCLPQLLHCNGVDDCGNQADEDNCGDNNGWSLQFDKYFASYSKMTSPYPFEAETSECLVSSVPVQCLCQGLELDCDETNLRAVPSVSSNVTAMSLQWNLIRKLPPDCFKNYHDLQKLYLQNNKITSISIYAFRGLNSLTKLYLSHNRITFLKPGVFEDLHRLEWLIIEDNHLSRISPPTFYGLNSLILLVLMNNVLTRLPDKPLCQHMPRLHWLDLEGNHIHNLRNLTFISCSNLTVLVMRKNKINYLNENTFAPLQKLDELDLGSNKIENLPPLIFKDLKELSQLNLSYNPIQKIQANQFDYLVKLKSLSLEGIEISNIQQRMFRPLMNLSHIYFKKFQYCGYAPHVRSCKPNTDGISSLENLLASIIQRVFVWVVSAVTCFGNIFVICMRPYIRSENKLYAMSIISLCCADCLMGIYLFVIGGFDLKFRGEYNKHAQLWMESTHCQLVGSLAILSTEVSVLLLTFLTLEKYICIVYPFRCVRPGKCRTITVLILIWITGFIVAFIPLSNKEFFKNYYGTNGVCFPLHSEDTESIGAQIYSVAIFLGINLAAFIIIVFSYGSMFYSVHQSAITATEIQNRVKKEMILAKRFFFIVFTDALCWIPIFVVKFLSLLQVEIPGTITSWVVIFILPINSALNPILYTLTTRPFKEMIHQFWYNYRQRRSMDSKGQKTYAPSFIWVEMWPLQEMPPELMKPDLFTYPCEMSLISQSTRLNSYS

For experiment [4], the target named is T4, mouse RXFP1 receptor (mouse) (UniProt Q6R6I7).
T4 sequence (looked up): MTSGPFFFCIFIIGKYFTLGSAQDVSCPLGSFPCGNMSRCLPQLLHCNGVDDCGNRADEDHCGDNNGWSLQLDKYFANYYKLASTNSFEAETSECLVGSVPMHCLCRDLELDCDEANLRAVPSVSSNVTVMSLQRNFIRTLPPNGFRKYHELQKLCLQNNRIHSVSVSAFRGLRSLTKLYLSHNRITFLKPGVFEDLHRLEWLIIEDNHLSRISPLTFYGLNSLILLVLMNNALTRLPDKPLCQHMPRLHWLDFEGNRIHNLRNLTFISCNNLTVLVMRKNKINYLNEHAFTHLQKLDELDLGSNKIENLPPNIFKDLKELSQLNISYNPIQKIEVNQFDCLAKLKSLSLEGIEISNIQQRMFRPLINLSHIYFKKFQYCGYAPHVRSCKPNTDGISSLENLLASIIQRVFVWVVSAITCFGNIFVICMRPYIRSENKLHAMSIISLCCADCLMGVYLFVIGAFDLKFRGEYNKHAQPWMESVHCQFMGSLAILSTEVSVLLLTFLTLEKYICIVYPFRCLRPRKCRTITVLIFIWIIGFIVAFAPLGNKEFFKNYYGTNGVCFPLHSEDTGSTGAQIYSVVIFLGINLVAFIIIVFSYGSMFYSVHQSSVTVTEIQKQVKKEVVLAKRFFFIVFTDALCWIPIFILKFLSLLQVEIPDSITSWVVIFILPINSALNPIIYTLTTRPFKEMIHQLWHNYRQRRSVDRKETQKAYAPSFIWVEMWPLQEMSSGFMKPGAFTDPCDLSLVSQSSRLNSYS

B1: 0054 (protein)
chain: EVQLLESGGGLVQPGGSLRLSCAASGRYIDETAVAWFRQAPGKGREFVAGIGGGVDITYYADSVKGRFTISRDNSKNTLYLQMNSLRPEDTAVYYCAARPGRPLITSKVADLYPYWGQGTLVTVSSGGGGQGGGGQGGGGQGGGGQGGGGQSWMEEVIKLCGRELVRAQIAICGMSTWSGGGSGGSGGGQLYSALANKCCHVGCTKRSLARFC
For B1, the EC50 (nM), cAMP production in CHO-K1 cells with receptor overexpression is 1350 nM in experiment [1]; 10.5 nM in the experiment with rat RXFP1 receptor (rat); 25.6 nM in experiment [2]; 3040 nM in the experiment with dog RXFP1 receptor (dog); 21.8 nM in experiment [3]; 23.4 nM in experiment [4]. The EC50 (nM), cAMP production in THP1 cells, 1% HSA in experiment [2] amounted to 15.8 nM. In addition, the EC50 (nM), cAMP production in THP1 cells, without HSA in experiment [2] was found to be 10.3 nM.
